Values of other authors as cited in paper PMC6189303.

Biological target: L1-CAM (UniProt P32004)
Chain of UniProt P32004 (P32004 20-1120): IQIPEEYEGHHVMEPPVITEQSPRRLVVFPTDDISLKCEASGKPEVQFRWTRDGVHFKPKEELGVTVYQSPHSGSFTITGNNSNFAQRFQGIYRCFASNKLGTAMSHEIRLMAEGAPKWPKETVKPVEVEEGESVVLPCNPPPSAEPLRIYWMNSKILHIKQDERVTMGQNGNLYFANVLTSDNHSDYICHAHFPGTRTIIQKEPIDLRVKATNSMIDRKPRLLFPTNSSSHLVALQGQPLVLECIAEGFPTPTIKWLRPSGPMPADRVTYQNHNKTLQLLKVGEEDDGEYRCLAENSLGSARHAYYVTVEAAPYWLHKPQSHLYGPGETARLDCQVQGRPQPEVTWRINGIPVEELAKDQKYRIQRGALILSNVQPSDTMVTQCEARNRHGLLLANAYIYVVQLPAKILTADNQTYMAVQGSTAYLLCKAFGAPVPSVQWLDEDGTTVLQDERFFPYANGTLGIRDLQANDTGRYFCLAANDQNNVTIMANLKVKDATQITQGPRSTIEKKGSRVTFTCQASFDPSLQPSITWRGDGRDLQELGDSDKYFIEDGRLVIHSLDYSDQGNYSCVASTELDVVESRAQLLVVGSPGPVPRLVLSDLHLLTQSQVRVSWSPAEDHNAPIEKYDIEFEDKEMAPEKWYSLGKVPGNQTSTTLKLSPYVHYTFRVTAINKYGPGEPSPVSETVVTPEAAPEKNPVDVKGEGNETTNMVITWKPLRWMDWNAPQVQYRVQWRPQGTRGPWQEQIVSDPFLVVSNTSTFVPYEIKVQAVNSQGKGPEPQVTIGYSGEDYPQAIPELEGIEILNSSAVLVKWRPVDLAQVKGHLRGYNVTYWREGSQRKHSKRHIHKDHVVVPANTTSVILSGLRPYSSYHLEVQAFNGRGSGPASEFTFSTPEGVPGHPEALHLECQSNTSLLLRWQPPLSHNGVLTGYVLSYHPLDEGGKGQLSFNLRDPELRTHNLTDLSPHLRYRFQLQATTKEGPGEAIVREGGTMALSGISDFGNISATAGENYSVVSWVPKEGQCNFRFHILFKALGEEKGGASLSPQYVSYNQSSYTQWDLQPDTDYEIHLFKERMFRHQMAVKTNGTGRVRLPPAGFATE

Kd: 1 nM
Substance: Neurocan (from UniProt O14594)
